In US20250388669A1 (published 2025):

What was measured:
[1] = target: T1, CD137 (UniProt Q07011 24-186, limits assumed); experiment: FCM or ELISA (graded summary table)
T1 construct: also called 4-1BB

[2] = target: T2, CD19 (UniProt P15391 20-556, limits assumed); experiment: FCM or ELISA (graded summary table)
T2 construct: whole, on cells
T2 sequence (looked up): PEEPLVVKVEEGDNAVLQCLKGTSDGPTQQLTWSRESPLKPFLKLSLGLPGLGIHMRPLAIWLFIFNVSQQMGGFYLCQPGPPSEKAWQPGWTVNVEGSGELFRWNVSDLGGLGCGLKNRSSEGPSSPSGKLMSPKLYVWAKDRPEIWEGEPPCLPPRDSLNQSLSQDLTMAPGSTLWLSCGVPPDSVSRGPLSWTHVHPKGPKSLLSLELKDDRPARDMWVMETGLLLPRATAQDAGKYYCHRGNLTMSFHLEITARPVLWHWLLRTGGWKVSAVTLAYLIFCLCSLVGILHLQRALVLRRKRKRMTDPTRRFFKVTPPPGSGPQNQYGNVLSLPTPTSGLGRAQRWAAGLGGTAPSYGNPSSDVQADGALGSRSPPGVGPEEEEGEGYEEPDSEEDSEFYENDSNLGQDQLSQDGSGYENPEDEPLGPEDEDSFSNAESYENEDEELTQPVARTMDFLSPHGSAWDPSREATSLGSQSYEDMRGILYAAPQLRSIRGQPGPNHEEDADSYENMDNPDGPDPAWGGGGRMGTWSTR

[3] = target: T3, CD40 (human, UniProt P25942 21-193); experiment: CD40 binding (method not given)
T3 construct: In the reporter assay it is whole, on GS-H2-huCD40 cells; also called huCD40
T3 sequence (P25942 21-193 limits assumed): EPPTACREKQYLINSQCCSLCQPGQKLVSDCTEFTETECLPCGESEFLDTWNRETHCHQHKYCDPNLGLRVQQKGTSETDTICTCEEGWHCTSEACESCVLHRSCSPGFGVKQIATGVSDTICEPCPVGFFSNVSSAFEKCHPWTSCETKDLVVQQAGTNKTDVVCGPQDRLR

B1: Ly1966 (other)
chain 1: QVQLQQSGAELVRPGSSVKISCKASGYAFSSYWMNWVKQRPGQGLEWIGQIWPGDGDTNYNGKFKGKATLTADESSSTAYMQLSSLASEDSAVYFCARRETTTVGRYYYAMDYWGQGTTVTVSSASTKGPSVFPLAPSSKSTSGGTAALGCLVKDYFPEPVTVSWNSGALTSGVHTFPAVLQSSGLYSLSSVVTVPSSSLGTQTYICNVNHKPSNTKVDKKVEPKSCGGGGSGGGGSGGGGSGGGGSEVQLVESGGGLVQPGGSLRLSCAASGFTFSTYAMNWVRQAPGKGLEWVGRIRSKYNNYATYYADSVKGRFTISRDDSKNSLYLQMNSLKTEDTAVYYCVRHGNFGNSYVSWFAYWGQGTLVTVSSGGGGSDKTHTCPPCPAPEAAGPSVFLFPPKPKDTLMISRTPEVTCVVVDVSHEDPEVKFNWYVDGVEVHNAKTKPREEQYNSTYRVVSVLTVLHQDWLNGKEYKCKVSNKALPAPIEKTISKAKGQPREPQVYTLPPSREEMTKNQVSLWCLVKGFYPSDIAVEWESNGQPENNYKTTPPVLDSDGSFFLYSKLTVDKSRWQQGNVFSCSVMHEALHNHYTQKSLSLSPGGGGGSGGGGSGGGGSGGGGSQVQLVQSGAEVKKPGASVKVSCKASGYTFAGFEMHWVRQAPGQGLEWMGAIDPKTGGTDYNQKFKDRVTMTRDTSISTAYMELSRLRSDDTAVYYCARDLGYFDVWGQGTLVTVSS
chain 2: QVQLQQSGAELVRPGSSVKISCKASGYAFSSYWMNWVKQRPGQGLEWIGQIWPGDGDTNYNGKFKGKATLTADESSSTAYMQLSSLASEDSAVYFCARRETTTVGRYYYAMDYWGQGTTVTVSSASTKGPSVFPLAPSSKSTSGGTAALGCLVKDYFPEPVTVSWNSGALTSGVHTFPAVLQSSGLYSLSSVVTVPSSSLGTQTYICNVNHKPSNTKVDKKVEPKSCGGGGSGGGGSGGGGSGGGGSQAVVTQEPSLTVSPGGTVTLTCRSSTGAVTTSNYANWVQQKPGQAPRGLIGGTNKRAPWTPARFSGSLLGGKAALTITGAQAEDEADYYCALWYSNLWVFGGGTKLTVLGGGGSDKTHTCPPCPAPEAAGPSVFLFPPKPKDTLMISRTPEVTCVVVDVSHEDPEVKFNWYVDGVEVHNAKTKPREEQYNSTYRVVSVLTVLHQDWLNGKEYKCKVSNKALPAPIEKTISKAKGQPREPQVYTLPPSREEMTKNQVSLSCAVKGFYPSDIAVEWESNGQPENNYKTTPPVLDSDGSFFLVSKLTVDKSRWQQGNVFSCSVMHEALHNRFTQKSLSLSPGGGGGSGGGGSGGGGSGGGGSDIQMTQSPSSLSASVGDRVTITCRASQDIRSNLNWYQQKPGGAVKLLIYYTSRLHSGVPSRFSGSGSGTDYTLTISSLQPEDFATYFCQQSEKLPRTFGGGTKVEIR
light: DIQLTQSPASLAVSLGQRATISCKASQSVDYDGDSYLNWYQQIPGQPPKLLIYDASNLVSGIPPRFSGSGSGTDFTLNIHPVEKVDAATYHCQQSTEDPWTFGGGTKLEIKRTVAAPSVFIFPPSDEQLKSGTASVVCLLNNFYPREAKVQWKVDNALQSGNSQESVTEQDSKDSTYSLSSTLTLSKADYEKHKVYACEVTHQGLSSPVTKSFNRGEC
notes: Tri-specific antibody CD19 (two Fabs) / CD3 (central Fv) / CD137 (terminal Fv)
B1: binds [1].

B2: Ly1967 (other)
chain 1: QVQLQQSGAELVRPGSSVKISCKASGYAFSSYWMNWVKQRPGQGLEWIGQIWPGDGDTNYNGKFKGKATLTADESSSTAYMQLSSLASEDSAVYFCARRETTTVGRYYYAMDYWGQGTTVTVSSASTKGPSVFPLAPSSKSTSGGTAALGCLVKDYFPEPVTVSWNSGALTSGVHTFPAVLQSSGLYSLSSVVTVPSSSLGTQTYICNVNHKPSNTKVDKKVEPKSCGGGGSGGGGSGGGGSGGGGSEVQLVESGGGLVQPGGSLRLSCAASGFTFSTYAMNWVRQAPGKGLEWVGRIRSKYNNYATYYADSVKGRFTISRDDSKNSLYLQMNSLKTEDTAVYYCVRHGNFGNSYVSWFAYWGQGTLVTVSSGGGGSDKTHTCPPCPAPEAAGPSVFLFPPKPKDTLMISRTPEVTCVVVDVSHEDPEVKFNWYVDGVEVHNAKTKPREEQYNSTYRVVSVLTVLHQDWLNGKEYKCKVSNKALPAPIEKTISKAKGQPREPQVYTLPPSREEMTKNQVSLWCLVKGFYPSDIAVEWESNGQPENNYKTTPPVLDSDGSFFLYSKLTVDKSRWQQGNVFSCSVMHEALHNHYTQKSLSLSPGGGGGSGGGGSGGGGSGGGGSQVQLVQSGAEVKKPGASVKVSCKASGYTFAGFEMHWVRQAPGQGLEWMGAIDPKTGGTDYNQKFKDRVTMTRDTSISTAYMELSRLRSDDTAVYYCARDLGYFDVWGQGTLVTVSS
chain 2: QVQLQQSGAELVRPGSSVKISCKASGYAFSSYWMNWVKQRPGQGLEWIGQIWPGDGDTNYNGKFKGKATLTADESSSTAYMQLSSLASEDSAVYFCARRETTTVGRYYYAMDYWGQGTTVTVSSASTKGPSVFPLAPSSKSTSGGTAALGCLVKDYFPEPVTVSWNSGALTSGVHTFPAVLQSSGLYSLSSVVTVPSSSLGTQTYICNVNHKPSNTKVDKKVEPKSCGGGGSGGGGSGGGGSGGGGSQAVVTQEPSLTVSPGGTVTLTCRSSTGAVTTSNYANWVQQKPGQAPRGLIGGTNKRAPWTPARFSGSLLGGKAALTITGAQAEDEADYYCALWYSNLWVFGGGTKLTVLGGGGSDKTHTCPPCPAPEAAGPSVFLFPPKPKDTLMISRTPEVTCVVVDVSHEDPEVKFNWYVDGVEVHNAKTKPREEQYNSTYRVVSVLTVLHQDWLNGKEYKCKVSNKALPAPIEKTISKAKGQPREPQVYTLPPSREEMTKNQVSLSCAVKGFYPSDIAVEWESNGQPENNYKTTPPVLDSDGSFFLVSKLTVDKSRWQQGNVFSCSVMHEALHNHYTQKSLSLSPGGGGGSGGGGSGGGGSGGGGSDIQMTQSPSSLSASVGDRVTITCRASQDIRSNLNWYQQKPGGAVKLLIYYTSRLHSGVPSRFSGSGSGTDYTLTISSLQPEDFATYFCQQSEKLPRTFGGGTKVEIR
light: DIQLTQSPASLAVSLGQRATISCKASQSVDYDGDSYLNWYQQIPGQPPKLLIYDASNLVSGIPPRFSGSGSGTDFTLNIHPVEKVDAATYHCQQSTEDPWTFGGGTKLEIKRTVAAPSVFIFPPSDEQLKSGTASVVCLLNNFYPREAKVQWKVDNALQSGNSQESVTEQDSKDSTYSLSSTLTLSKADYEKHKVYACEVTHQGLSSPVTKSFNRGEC
notes: as for B1
B2: binds [1].

B3: Ly238 (antibody, V domains shown)
VH: QVQLQQSGAELVRPGSSVKISCKASGYAFSSYWMNWVKQRPGQGLEWIGQIWPGDGDTNYNGKFKGKATLTADESSSTAYMQLSSLASEDSAVYFCARRETTTVGRYYYAMDYWGQGTTVTVSS
VL: DIQLTQSPASLAVSLGQRATISCKASQSVDYDGDSYLNWYQQIPGQPPKLLIYDASNLVSGIPPRFSGSGSGTDFTLNIHPVEKVDAATYHCQQSTEDPWTFGGGTKLEIK
notes: Parent mAb; also called Anti-CD19 Ly238; parent anti-CD19 mAb
B3: binds [2].

B4: Ly2280 (bispecific antibody)
chain 1: not shown
chain 2: QVTLKESGPALVKPTQTLTLTCTFSGFSLSTSGTCVSWIRQPPGKALEWLATICWEDSKGYNPSLKSRLTISKDTSKNQAVLTMTNMDPVDTATYYCARREDSGYFWFPYWGQGTLVTVSSASTKGPSVFPLAPSSKSTSGGTAALGCLVKDYFPEPVTVSWNSGALTSGVHTFPAVLQSSGLYSLSSVVTVPSSSLGTQTYICNVNHKPSNTKVDKKVEPKSCGGGGSGGGGSGGGGSGGGGSDIQMTQSPSSVSASVGDRVTITCRASQGIYSWLAWYQQKPGKAPNLLIYTASTLQSGVPSRFSGSGSGTDFTLTISSLQPEDFATYYCQQANIFPLTFGGGTKVEIKGGGGSDKTHTCPPCPAPEAAGPSVFLFPPKPKDTLMISRTPEVTCVVVDVSHEDPEVKFNWYVDGVEVHNAKTKPREEQYNSTYRVVSVLTVLHQDWLNGKEYKCKVSNKALPAPIEKTISKAKGQPREPQVYTLPPSREEMTKNQVSLSCAVKGFYPSDIAVEWESNGQPENNYKTTPPVLDSDGSFFLVSKLTVDKSRWQQGNVFSCSVMHEALHNRFTQKSLSLSPG
light: NIQMTQSPSSLSASVGDRVTITCKAGQNVNNYLAWYQQKPGKAPKVLIFNANSLQTGVPSRFSGSGSGTDFTLTISSLQPEDFATYYCQQYNSWPTFGGGTKVEIKRTVAAPSVFIFPPSDEQLKSGTASVVCLLNNFYPREAKVQWKVDNALQSGNSQESVTEQDSKDSTYSLSSTLTLSKADYEKHKVYACEVTHQGLSSPVTKSFNRGEC
notes: PD-1 Fabs, central CD40 Fv
B4 showed an EC50 [3] of 3.17 µg/mL.

B5: Ly2278 (bispecific antibody)
chain 1: QVQLQQSGAELVRPGSSVKISCKASGYAFSSYWMNWVKQRPGQGLEWIGQIWPGDGDTNYNGKFKGKATLTADESSSTAYMQLSSLASEDSAVYFCARRETTTVGRYYYAMDYWGQGTTVTVSSASTKGPSVFPLAPSSKSTSGGTAALGCLVKDYFPEPVTVSWNSGALTSGVHTFPAVLQSSGLYSLSSVVTVPSSSLGTQTYICNVNHKPSNTKVDKKVEPKSCGGGGSGGGGSGGGGSGGGGSEVQLVESGGGLVQPGGSLRLSCAASGFTFSTYAMNWVRQAPGKGLEWVGRIRSKYNNYATYYADSVKGRFTISRDDSKNSLYLQMNSLKTEDTAVYYCVRHGNFGNSYVSWFAYWGQGTLVTVSSGGGGSDKTHTCPPCPAPEAAGPSVFLFPPKPKDTLMISRTPEVTCVVVDVSHEDPEVKFNWYVDGVEVHNAKTKPREEQYNSTYRVVSVLTVLHQDWLNGKEYKCKVSNKALPAPIEKTISKAKGQPREPQVYTLPPSREEMTKNQVSLWCLVKGFYPSDIAVEWESNGQPENNYKTTPPVLDSDGSFFLYSKLTVDKSRWQQGNVFSCSVMHEALHNHYTQKSLSLSPG
chain 2: QVQLQQSGAELVRPGSSVKISCKASGYAFSSYWMNWVKQRPGQGLEWIGQIWPGDGDTNYNGKFKGKATLTADESSSTAYMQLSSLASEDSAVYFCARRETTTVGRYYYAMDYWGQGTTVTVSSASTKGPSVFPLAPSSKSTSGGTAALGCLVKDYFPEPVTVSWNSGALTSGVHTFPAVLQSSGLYSLSSVVTVPSSSLGTQTYICNVNHKPSNTKVDKKVEPKSCGGGGSGGGGSGGGGSGGGGSQAVVTQEPSLTVSPGGTVTLTCRSSTGAVTTSNYANWVQQKPGQAPRGLIGGTNKRAPWTPARFSGSLLGGKAALTITGAQAEDEADYYCALWYSNLWVFGGGTKLTVLGGGGSDKTHTCPPCPAPEAAGPSVFLFPPKPKDTLMISRTPEVTCVVVDVSHEDPEVKFNWYVDGVEVHNAKTKPREEQYNSTYRVVSVLTVLHQDWLNGKEYKCKVSNKALPAPIEKTISKAKGQPREPQVYTLPPSREEMTKNQVSLSCAVKGFYPSDIAVEWESNGQPENNYKTTPPVLDSDGSFFLVSKLTVDKSRWQQGNVFSCSVMHEALHNRFTQKSLSLSPG
light: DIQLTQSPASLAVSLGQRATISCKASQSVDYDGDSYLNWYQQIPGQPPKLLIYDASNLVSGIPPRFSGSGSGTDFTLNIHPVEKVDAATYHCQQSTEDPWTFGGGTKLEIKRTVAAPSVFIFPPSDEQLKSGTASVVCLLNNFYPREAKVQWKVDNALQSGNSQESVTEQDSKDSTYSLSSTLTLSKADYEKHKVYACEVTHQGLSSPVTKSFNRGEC
notes: Bispecific CD19 (two Fabs) / CD3 (central Fv)
B5: binds [2].
